“And” between values parts separate entries of the source, which are not always exact repeats. Equal values may be shown once. Read-outs that look alike come from different tables or passages of the source. Marks after values point to notes of the source that are not given here.
Assays:
rabbit blood = assay: In vitro hemolysis in rabbit blood; conditions: concentrations up to 2.54 mg/mL
Excerpt: Furthermore, with the cytoplasmic nature of the staining, no significant biological relevancy is anticipated.

C1q, human FcγR1 = assay: C1q and FcγR1 binding, NK cell ADCC on activated human CD8+ T cells
MC38 colon cancer cells = assay: MC38 colon cancer model, ADG106 with local radiation; assay type: in vivo, C57BL/6 mice; conditions: 10 mg/kg twice a week for 3 weeks
Excerpt: C57BL/6 mice (n=8 per group, female, 6-8 weeks old) were transplanted subcutaneously with 5×10^5 MC38 colon cancer cells. […] Tumor growth was monitored twice weekly and reported as mean tumor volume ±SEM over time.

NK (CD16+/CD56+) cells [1] = assay: TBNK flow cytometry of patient peripheral blood, NK cell percentage; assay type: in vivo, human; conditions: for Percentage of NK cells (CD3-CD56+/CD16+), Postdose: individual patients
Protocol: Pre- and post-treatment peripheral blood samples from 31 patients in a phase 1 trial were collected for biomarker analyses. The TBNK flow cytometry assay was employed to measure the composition of T (CD3+, CD4+/CD8+ subsets), B (CD19+) and NK (CD16+/CD56+) cells in peripheral blood samples. NK cell levels were determined as percentages of CD45+ lymphocytes and absolute cell counts.

T cells = assay: T cell activation in vitro (with anti-CD3 antibody co-treatment); assay type: cell-based
Excerpt: To elaborate, there could be unquantified/uncertain combination effect with other MOAs, particularly with Immuno-oncology (IO) agents which could be potentially additive and/or synergistic for AEs.

[2] = human, in vivo, iv
Protocol: (§1) Blood samples for PK analysis were collected at Cycle 1 (Day 1: pre-dose and 2, 6, 12, and 24 hours after the end of infusion; once on Days 8, 15, and 22), Day 1 pre-dose and 2 hours after the end of infusion of subsequent cycles, and at the End of Treatment. […] PK parameters were estimated using a non-compartmental method with WinNonlin.

NK (CD16+/CD56+) cells [3] = assay: TBNK flow cytometry of patient peripheral blood, NK cell percentage; assay type: in vivo, human; conditions: 32 patients analyzed
[4] = Clinical immunogenicity, anti-drug antibody (ADA) immunoassay; assay type: in vivo, human
Protocol: Blood samples were collected as described in the PK analysis. The anti-drug-antibody (ADA) to ADG106 in human serum was measured using a validated Affinity Capture and Elution (ACE) based immunoassay. All samples were first analyzed for ADAs in a screening assay. Study samples with results below the screening cut-off were reported as negative for ADAs. In the event of a positive result in the screening assay, samples were analyzed in the confirmatory assay. All samples confirmed positive were reported as positive.

[5] = tested on: CT-26 (colon carcinoma), H22 (liver cancer), EMT6 (breast cancer); assay: Single agent efficacy in syngeneic mouse tumor models (CT-26, H22, EMT6); assay type: in vivo
[6] = Clinical pharmacokinetics, serum ADG106 by ELISA, non-compartmental analysis
Protocol: as §1

In the case of “ADG106: fully human agonistic anti-CD137 monoclonal IgG4 antibody; heavy chain SEQ ID NO: 10, light chain SEQ ID NO: 11”, the hemolysis (rabbit blood) was “no ADG106-related hemolysis”, the C1q binding (C1q, human FcγR1) was “unable to bind C1 q” and the “binding affinity for human FcγR1 protein” value (C1q, human FcγR1) was “low binding affinity”. For the same substance, the “NK cell antibody-dependent cell-mediated cytotoxicity on activated human CD8+ T cells” value (C1q, human FcγR1; human whole cell assays) was “did not show detectable”, the “antitumor activity, alone” value (MC38 colon cancer cells) was “marginal if any antitumor activity” and the “Percentage of NK cells (CD3-CD56+/CD16+), Postdose” value (“Percentage of NK cells” below) (NK (CD16+/CD56+) cells [1]; C1D8) was 25.14% and 28.38% and 11.18% and 22.03% and 35.85% and 36.13% and 8.25% and 22.79% and 46.22% and 15.01% and 14.06% and 34.54% and 11.84% and 32.43% and 10.14% and 23.1% and 55% and 35.4% and 19.5% and 14.7% and 25%. For the same substance, the “Percentage of NK cells” value (NK (CD16+/CD56+) cells [1]; C1D15) was 21.21* % and 22.19* %, the “Percentage of NK cells” value (NK (CD16+/CD56+) cells [1]; C1D21) was 39.58^# % and 4.27^# % and 20.01^# % and 34.74^# % and 40.45^# % and 26.93^# % and 27.23^# % and 18.81^# % and 16.65^# % and the “dose saturating CD137 receptors on NK cells (NK cell proliferation effect)” value (NK (CD16+/CD56+) cells [1]; patients) was ≥ 1.5 mg/kg. For the same substance, the “concentration range triggering observable, not maximal T cell activation” value (T cells; in vitro) was 1 to 3 µg/mL, the “concentration range triggering robust T cell activation” value (T cells; with anti-CD3 antibody co-treatment) was ≥ 10 µg/mL and the T1/2 ([2]; 0.03 mg/kg) was 87 h. For the same substance, the T1/2 ([2]; 0.3 mg/kg) was 159 h, the T1/2 ([2]; 1 mg/kg) was 146.3 h and the T1/2 ([2]; 3 mg/kg) was 149 h. The “patients with a decrease of the NK cell level” value (NK (CD16+/CD56+) cells [3]) was 6%, the “patients with no change of the NK cell level” value (NK (CD16+/CD56+) cells [3]) was 6% and the “patients with an increase of the NK cell level in peripheral blood” value (NK (CD16+/CD56+) cells [3]; after first cycle) was 88%. For the same substance, the “treatment emergent or boosted ADA” value ([4]; Chinese patients tested so far) was 5 of 23, the “patients with treatment-induced anti-drug antibodies” value ([4]; patients tested) was “about 20%” and the “single agent efficacy in CT-26, H22 and EMT6 syngeneic models” value ([5]; mouse, in vivo) was “single agent anti-tumor efficacy”. For the same substance, the “median effective dose (ED50)” value ([5]; syngeneic mouse liver and breast cancer models) was “approximately 1 mg/kg”, the “AUC(0-t)” value ([6]; Chinese study, 0.1 mg/kg IV) was 255 µg·h/mL and the CLz ([6]; Chinese study, 0.1 mg/kg IV) was 8.88 mL/day/kg. The “AUC(0-t)” value ([6]; Chinese study, 0.5 mg/kg IV) was 1761 µg·h/mL, the CLz ([6]; Chinese study, 0.5 mg/kg IV) was 6.72 mL/day/kg and the T½ ([6]; Chinese study, 0.5 mg/kg IV) was 146 h. The “AUC(0-t)” value ([6]; Chinese study, 1.5 mg/kg IV) was 4162 µg·h/mL, the CLz ([6]; Chinese study, 1.5 mg/kg IV) was 7.92 mL/day/kg and the T½ ([6]; Chinese study, 1.5 mg/kg IV) was 180 h. The “AUC(0-t)” value ([6]; Chinese study, 3 mg/kg IV) was 10016 µg·h/mL, the CLz ([6]; Chinese study, 3 mg/kg IV) was 6 mL/day/kg and the T½ ([6]; Chinese study, 3 mg/kg IV) was 214 h. For the same substance, the “AUC(0-t)” value ([6]; Chinese study, 5 mg/kg IV) was 20966 µg·h/mL, the CLz ([6]; Chinese study, 5 mg/kg IV) was 5.28 mL/day/kg and the T½ ([6]; Chinese study, 5 mg/kg IV) was 173 h. For the same substance, the “AUC(0-t)” value ([6]; Chinese study, 10 mg/kg IV) was 39658 µg·h/mL, the CLz ([6]; Chinese study, 10 mg/kg IV) was 5.52 mL/day/kg and the T½ ([6]; Chinese study, 10 mg/kg IV) was 132 h. The AUC(0-t) ([6]; US study, cycle 1, 0.03 mg/kg IV, n=1) was 0.626 µg·h/mL, the AUC(0-t) ([6]; US study, cycle 1, 0.1 mg/kg IV, n=1) was 0.668 µg·h/mL and the AUC(0-t) ([6]; US study, cycle 1, 0.3 mg/kg IV, n=1) was 1.387 µg·h/mL. For the same substance, the AUC(0-t) ([6]; US study, cycle 1, 1 mg/kg IV, n=3) was 3.8767 µg·h/mL, the AUC(0-t) ([6]; US study, cycle 1, 3 mg/kg IV, n=3) was 18.42 µg·h/mL and the mean half-life ([6]; doses ≥0.5 mg/kg) was “around 7 days”.

Reference: patent publication US20230133118A1, “COMPOSITIONS AND METHODS FOR TREATING CANCER” (Adagene AG, priority 2020, published 2023)
